# Reference: patent publication US20260284207 (published 2026)
# Where “and” joins values, the source holds several entries; their conditions need not be identical. Equal entries are not always repeated. FL = fluorescein (N-terminal fluorescent label)
# Assays:
# Assay in all cases: FP
# [1] = target: T1, FBXO31/SKP1 complex (wild type) (human, UniProt Q5XUX0)
# FBXO31 D334N/SKP1 = FBXO31 D334N/SKP1 (human, UniProt Q5XUX0)
# [2] = target: T1, FBXO31/SKP1 complex (wild type); remark: listed apart in the source
# T1 sequence (Q5XUX0 whole entry, chain 1 of 2): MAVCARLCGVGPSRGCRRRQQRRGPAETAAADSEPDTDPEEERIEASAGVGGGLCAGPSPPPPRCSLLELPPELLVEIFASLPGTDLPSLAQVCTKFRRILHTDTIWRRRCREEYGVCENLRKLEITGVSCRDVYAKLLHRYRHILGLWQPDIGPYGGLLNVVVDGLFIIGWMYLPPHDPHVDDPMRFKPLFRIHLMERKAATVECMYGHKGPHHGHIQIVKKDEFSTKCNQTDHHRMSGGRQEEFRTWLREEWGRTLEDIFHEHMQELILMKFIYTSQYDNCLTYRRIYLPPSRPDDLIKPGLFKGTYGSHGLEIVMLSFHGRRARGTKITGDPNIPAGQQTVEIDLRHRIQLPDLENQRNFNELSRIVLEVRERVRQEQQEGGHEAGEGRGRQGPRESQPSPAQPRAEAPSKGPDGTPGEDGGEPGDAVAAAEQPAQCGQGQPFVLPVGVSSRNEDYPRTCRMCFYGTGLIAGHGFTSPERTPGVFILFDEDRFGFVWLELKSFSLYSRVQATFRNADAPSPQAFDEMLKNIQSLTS
# T1 sequence (chain, as listed by the source, chain 2 of 2): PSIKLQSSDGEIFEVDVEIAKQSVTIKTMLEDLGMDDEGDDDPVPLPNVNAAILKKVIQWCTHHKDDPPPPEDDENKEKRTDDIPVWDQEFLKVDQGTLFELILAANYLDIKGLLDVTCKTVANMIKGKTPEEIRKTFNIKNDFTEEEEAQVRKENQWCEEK
# FBXO31 D334N/SKP1, sequence (Q5XUX0 whole entry D334N, chain 1 of 2): as the sequence (Q5XUX0 whole entry, chain 1 of 2) above, with D334N counted along it
# FBXO31 D334N/SKP1, sequence (chain, as listed by the source D334N, chain 2 of 2): as the sequence (chain, as listed by the source, chain 2 of 2) above
Binder,Kd [1],binding result (FBXO31 D334N/SKP1),binding result [2]
{FL}-KAATPTDVRDVDI-NH2 [FL-CycD1-NH2],59 nM,,
{FL}-KEEDEKGSRASDDFRDLR-NH2 [FL-Pep2-NH2 (amidated model/screening peptide)],22 nM and 16 nM,,

# The next lines start with the values.
Kd [1],binding result (FBXO31 D334N/SKP1),binding result [2],Binder
,no binding,no binding,{FL}-KAATPTDVRDVDI-OH [FL-CycD1-OH]
,,no binding,{FL}-KEEDEKGSRASDDFRDLR-OH [FL-Pep2-OH (non-amidated model peptide)]
